Results taken from patent US20220089743A1 (Chugai, published 2022).
Numbering of substitutions follows the chain as printed.

B1: DQN0344H0976/L0591//DQN0385H1270/L0722-F6 (bispecific antibody)
heavy 1: QVQLVESGGGVVQPGGSLRLSCAASGFTFSSAYWMVWVRQAPGQGLEWMGAVYGGSDTTYYAKWTEGRFTISRDTSKNTLYLQMNSLRAEDTAVYYCAREPLNYYYYGELNLWGQGTLVTVSSASTKGPSVFPLAPSSKSTSGGTAALGCLVKDYFPEPVTVSWNSGALTSGVHTFPAVLKSSGLYSLSSVVTVPSSSLGTQTYICNVNHKPSNTKVDKRVEPKSCDKTHTCPPCPAPELRRGPSVFLFPPKPKDTLMISRTPEVTCVVVDVSHEDPEVKFNWYVDGVEVHNAKTKPREEQYNSTYRVVSVLTVLHQDWLNGKEYKCKVSNKALPAPIEKTISKAKGQPREPQVYTLPPSREEMTKNQVSLTCLVKGFYPSDIAVEWESNGQPENNYKTTPPYLDSDGSFFLYSKLTVDKSRWQEGNVFSCSVLHEALHAHYTREELSLSP
light 1: DIQMTQSPSSLSASVGDRVTITCQATEEIYSGLAWYQQKPGKAPKLLIYYVSTLYEGIPARFSGSGSGTDFTLTISSLEPEDFAVYYCQTYEDVSAVTFGQGTKVEIKRTVAAPSVFIFPPSDEQLKSGTAEVVCLLNNFYPREAKVQWKVDNALQSGNSEESVTEQDSKDSTYSLSSTLTLSKADYEKHKVYACEVTHQGLSSPVTKSFNRGEC
heavy 2: QVQLVESGGGVVQPGRSLRLSCAASGFTFSEWYFMSWVRQAPGKGLEWVASIDTGSGSIDYAEWVEGRFTISRDNSKNTLYLQMNSLRAEDTAVYYCARDIGIDYNFWGPGTLVTVSSASTKGPSVFPLAPSSKSTSGGTAALGCLVEDYFPEPVTVSWNSGALTSGVHTFPAVLESSGLYSLSSVVTVPSSSLGTKTYICNVNHKPSNTKVDKRVEPKSCDKTHTCPPCPAPELRRGPSVFLFPPKPKDTLMISRTPEVTCVVVDVSHEDPEVKFNWYVDGVEVHNAKTKPREEQYNSTYRVVSVLTVLHQDWLNGKEYKCKVSNKALPAPIEKTISKAKGQPREPQVYTLPPSRKEMTKNQVSLTCLVKGFYPSDIAVEWESNGQPENNYKTTPPYLDSDGSFFLYSKLTVDKSRWQQGNVFSCSVLHEALHAHYTRKELSLSP
light 2: DIQMTQSPSSLSASVGDRVTITCQTTQSISSYLNWYQQKPGQPPKLLIYYASTKAEGIPARFSGSGLGTDFTLTISSLQPEDFAVYYCHYGISKVSFGQGTKVEIKRTVAAPSVFIFPPSDEQLKSGTAKVVCLLNNFYPREAKVQWKVDNALQSGNSKESVTEQDSKDSTYSLSSTLTLSKADYEKHKVYACEVTHQGLSSPVTKSFNRGEC
B2: DQN0344H0976/L0591//DQN0385H1255/L0605-F6 (bispecific antibody)
heavy 1: B1 heavy 1
light 1: B1 light 1
heavy 2: B1 heavy 2 with E63G, G67E
light 2: B1 light 2 with L67S, Q79E
B3: DQN0344H0976/L0591//DQN0385H1255/L0605-F6.v2 (bispecific antibody, V domains shown)
VH 1: QVQLVESGGGVVQPGGSLRLSCAASGFTFSSAYWMVWVRQAPGQGLEWMGAVYGGSDTTYYAKWTEGRFTISRDTSKNTLYLQMNSLRAEDTAVYYCAREPLNYYYYGELNLWGQGTLVTVSS
VL 1: DIQMTQSPSSLSASVGDRVTITCQATEEIYSGLAWYQQKPGKAPKLLIYYVSTLYEGIPARFSGSGSGTDFTLTISSLEPEDFAVYYCQTYEDVSAVTFGQGTKVEIK
VH 2: QVQLVESGGGVVQPGRSLRLSCAASGFTFSEWYFMSWVRQAPGKGLEWVASIDTGSGSIDYAGWVEERFTISRDNSKNTLYLQMNSLRAEDTAVYYCARDIGIDYNFWGPGTLVTVSS
VL 2: DIQMTQSPSSLSASVGDRVTITCQTTQSISSYLNWYQQKPGQPPKLLIYYASTKAEGIPARFSGSGSGTDFTLTISSLEPEDFAVYYCHYGISKVSFGQGTKVEIK
B4: DQN0344H1013/L0620//DQN0385H1521/L0605-F6.v2 (bispecific antibody, V domains shown)
VH 1: B3 VH 1 with G16R, L112V
VL 1: B3 VL 1 with E28N, Y55A, E56Y
VH 2: B3 VH 2 with S30E, E31S, G63E, E67G
VL 2: B3 VL 2

These binders were tested against T1, HLA-DQ2.5 on IHW09023 cells loaded with gamma 3 gliadin peptide (human; wheat) (assay: cell-based or functional assay).

Row | Binder | IC50, γ3 gliadin TCR, 100 µM γ3 gliadin
1 | B1 | 2.88 ng/mL
2 | B2 | 2.31 ng/mL

Each binder was assayed against T2, HLA-DQ2.5 on IHW09023 cells loaded with gamma 1 gliadin peptide (human; wheat) (assay: cell-based or functional assay).

Row | Binder | IC50, γ1 gliadin TCR, 250 nM γ1 gliadin
3 | B1 | 0.66 ng/mL
4 | B2 | 0.91 ng/mL

The binders below were run against T3, HLA-DQ2.5 on IHW09023 cells loaded with BC hordein peptide (human; barley) (assay: cell-based or functional assay).

Row | Binder | IC50, BC hordein TCR, 250 nM BC hordein
5 | B1 | 13.2 ng/mL
6 | B2 | 13.6 ng/mL

These binders were tested against T4, HLA-DQ2.5 on IHW09023 cells loaded with gamma 4d gliadin peptide (human; wheat) (assay: cell-based or functional assay).

Row | Binder | IC50, γ4d gliadin TCR, 100 µM γ4d gliadin
7 | B1 | 16.3 ng/mL
8 | B2 | 12.4 ng/mL

Each binder was assayed against T5, HLA-DQ2.5 on IHW09023 cells loaded with gamma 2 gliadin peptide (human; wheat) (assay: cell-based or functional assay).

Row | Binder | IC50, γ2 gliadin TCR, 250 nM γ2 gliadin
9 | B1 | 281 ng/mL
10 | B2 | 440 ng/mL

What follows are binders tested against T6, HLA-DQ2.5 on IHW09023 cells loaded with omega1/2 gliadin peptide (human; wheat) (assay: cell-based or functional assay).

Row | Binder | IC50, ω1 gliadin TCR, 25 µM ω1/2 gliadin | IC50, ω2 gliadin TCR, 250 nM ω1/2 gliadin
11 | B1 | 2.55 ng/mL | 0.26 ng/mL
12 | B2 | 2.62 ng/mL | 0.25 ng/mL

Each binder was assayed against T7, HLA-DQ2.5 on IHW09023 cells loaded with gamma 4a gliadin peptide (human; wheat) (assay: cell-based or functional assay).

Row | Binder | IC50, γ4a gliadin TCR, 25 µM γ4a gliadin
13 | B1 | 726 ng/mL
14 | B2 | 1430 ng/mL

What follows are binders tested against T8, HLA-DQ2.5 on IHW09023 cells loaded with 33 mer gliadin peptide (human; wheat) (assay: cell-based or functional assay).

Row | Binder | IC50, α1a gliadin TCR, 250 nM 33mer gliadin | IC50, α1b gliadin TCR, 250 nM 33mer gliadin | IC50, α2 gliadin TCR, 250 nM 33mer gliadin
15 | B1 | 0.38 ng/mL | 1.41 ng/mL | 0.31 ng/mL
16 | B2 | 0.49 ng/mL | 2.66 ng/mL | 0.56 ng/mL

These binders were tested against HLA-DQ2.2 on HBBB2.2 cells loaded with 33 mer gliadin peptide (human; wheat) (assay: cell-based or functional assay).

Row | Binder | IC50, HLA-DQ2.2, α1a gliadin TCR, 25 µM 33mer gliadin | IC50, HLA-DQ2.2, α2 gliadin TCR, 1 µM 33mer gliadin
17 | B3 | 1.72 ng/mL | 9.48 ng/mL
18 | B4 | 1.16 ng/mL | 6.51 ng/mL

Molecular target: T1, HLA-DQ2.5 on IHW09023 cells loaded with …
Assay: cell-based or functional assay
Remark: another data set of the same source

Row | Binder | IC50, γ3 gliadin TCR, 100 µM γ3 gliadin
19 | B3 | 1.55 ng/mL
20 | B4 | 1.21 ng/mL

Molecular target: T2, HLA-DQ2.5 on IHW09023 cells loaded with …
Assay: cell-based or functional assay
Remark: another data set of the same source

Row | Binder | IC50, γ1 gliadin TCR, 250 nM γ1 gliadin
21 | B3 | 1.62 ng/mL
22 | B4 | 1.9 ng/mL

Molecular target: T3, HLA-DQ2.5 on IHW09023 cells loaded with …
Assay: cell-based or functional assay
Remark: another data set of the same source

Row | Binder | IC50, BC hordein TCR, 250 nM BC hordein
23 | B3 | 9.52 ng/mL
24 | B4 | 11.4 ng/mL

Molecular target: T4, HLA-DQ2.5 on IHW09023 cells loaded with …
Assay: cell-based or functional assay
Remark: another data set of the same source

Row | Binder | IC50, γ4d gliadin TCR, 100 µM γ4d gliadin
25 | B3 | 8.69 ng/mL
26 | B4 | 9.23 ng/mL

Molecular target: T5, HLA-DQ2.5 on IHW09023 cells loaded with …
Assay: cell-based or functional assay
Remark: another data set of the same source

Row | Binder | IC50, γ2 gliadin TCR, 250 nM γ2 gliadin
27 | B3 | 252 ng/mL
28 | B4 | 785 ng/mL

Molecular target: T6, HLA-DQ2.5 on IHW09023 cells loaded with …
Assay: cell-based or functional assay
Remark: another data set of the same source

Row | Binder | IC50, ω1 gliadin TCR, 25 µM ω1/2 gliadin | IC50, ω2 gliadin TCR, 250 nM ω1/2 gliadin
29 | B3 | 1.62 ng/mL | 0.18 ng/mL
30 | B4 | 1.96 ng/mL | 0.2 ng/mL

Molecular target: T7, HLA-DQ2.5 on IHW09023 cells loaded with …
Assay: cell-based or functional assay
Remark: another data set of the same source

Row | Binder | IC50, γ4a gliadin TCR, 25 µM γ4a gliadin
31 | B3 | 636 ng/mL
32 | B4 | 1250 ng/mL

Molecular target: T8, HLA-DQ2.5 on IHW09023 cells loaded with …
Assay: cell-based or functional assay
Remark: another data set of the same source

Row | Binder | IC50, α1a gliadin TCR, 250 nM 33mer gliadin | IC50, α1b gliadin TCR, 250 nM 33mer gliadin | IC50, α2 gliadin TCR, 250 nM 33mer gliadin
33 | B3 | 0.46 ng/mL | 1.33 ng/mL | 0.29 ng/mL
34 | B4 | 0.6 ng/mL | 1.81 ng/mL | 0.33 ng/mL
